Measurements published in article PMC5835687, “Great Cause—Small Effect: Undeclared Genetically Engineered Orange Petunias Harbor an Inefficient Dihydroflavonol 4-Reductase” (Frontiers in Plant Science, 2018).

B1: recombinant A1 protein (maize DFR) (Zea mays) (protein)
chain: MERGAGASEKGTVLVTGASGFVGSWLVMKLLQAGYTVRATVRDPANVGKTKPLMDLPGATERLSIWKADLAEEGSFHDAIRGCTGVFHVATPMDFLSKDPENEVIKPTVEGMISIMRACKEAGTVRRIVFTSSAGTVNLEERQRPVYDEESWTDVDFCRRVKMTGWMYFVSKTLAEKAALAYAAEHGLDLVTIIPTLVVGPFISASMPPSLITALALITGNAPHYSILKQVQLIHLDDLCDAEIFLFENPAAAGRYVCSSHDVTIHGLAAMLRDRYPEYDVPQRFPGIQDDLQPVRFSSKKLQDLGFTFRYKTLEDMFDAAIRTCQEKGLIPLATAAGGDGFASVRAPGETEATIGA
notes: full-length A1 cDNA in pGEX-6P-1, GST fusion from E. coli, GST tag removed, purified; A1 CDS 1,074 bp
B2: recombinant PhDFR (Petunia × hybrida DFR) (Petunia x hybrida) (protein)
chain: MASEAVHAPSPPVAVPTVCVTGAAGFIGSWLVMRLLERGYNVHATVRDPENKKKVKHLLELPKADTNLTLWKADLTVEGSFDEAIQGCQGVFHVATPMDFESKDPENEVIKPTVRGMLSIIESCAKANTVKRLVFTSSAGTLDVQEQQKLFYDQTSWSDLDFIYAKKMTGWMYFASKILAEKAAMEEAKKKNIDFISIIPPLVVGPFITPTFPPSLITALSLITGNEAHYCIIKQGQYVHLDDLCEAHIFLYEHPKADGRFICSSHHAIIYDVAKMVREKWPEYYVPTEFKGIDKDLPVVSFSSKKLTDMGFQFKYTLEDMYKGAIDTCRQKQLLPFSTRSAEDNGHNREAIAISAQNYASGKENAPVANHTEMLSNVEV

Experiments:
[1] = substrate: O=C1c2c(O)cc(O)cc2O[C@H](c2cc(O)c(O)c(O)c2)[C@H]1O; assay: purified protein; details: NADPH-dependent reduction; labelled compound
[2] = substrate: O=C1c2c(O)cc(O)cc2O[C@H](c2ccc(O)c(O)c2)[C@H]1O; assay: DFR enzyme assay, radiolabelled substrate, as previously described; format: biochemical, Zea mays; details: NADPH-dependent reduction; labelled compound

Row | Protein | Km [1] | kcat [1] | Km [2] | kcat [2]
1 | B1 | 3.1 µM | 0.87 s⁻¹ | 2.9 µM | 0.70 s⁻¹
2 | B2 | 1.3 µM | 2.14 s⁻¹ | – | –
